Measured values reported in patent publication US12338268B2, “Compositions and methods for treating protein aggregation-associated diseases” (The Board of Trustees of the Leland Stanford Junior …, priority 2019, dated 2025).

Key:
[1] = molecular target: T1, mutant Huntingtin exon 1 (mHttQ51) (Homo sapiens, UniProt P42858, INS38QQQQQQQQQQQQQQQQQQQQQQQQQQQQQQQ); test: In vitro filter trap aggregation assay of mutant Huntingtin exon 1; type: biochemical; settings: 5× or 10× molar excess of peptides
T1 construct: mutant Huntingtin exon 1 containing a pathogenic stretch of 51 glutamines (mHttQ51); GST (N, cleaved yes); made in house; host or cells: E. coli Rosetta 2(DE3) pLysS
T1 sequence (P42858 with tags, fused parts or gaps with the stated changes limits assumed): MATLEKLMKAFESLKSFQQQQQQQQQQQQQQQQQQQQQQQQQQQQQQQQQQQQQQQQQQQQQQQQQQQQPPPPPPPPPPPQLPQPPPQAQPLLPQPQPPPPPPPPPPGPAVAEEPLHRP
Experimental: Mutant Huntingtin and PolyQ51 aggregation reactions were performed at concentration 3 μM of mHttQ51, 0.044 Units/μl acTEV protease (Invitrogen, Carlsbad, CA, USA), and respective concentrations of Ovalbumin (Sigma) or purified NAC chaperone variants. Aggregation was conducted in TEV reaction buffer (Invitrogen) and incubated at 30° C. AtxQ78 was buffer exchanged into TEV reaction buffer using 7K MWCO Zeba Spin Desalting Columns (Thermo Fisher) to initiate aggregation. AtxQ78 aggregation reactions were performed at 30 μM of Ataxin-3 in reaction buffer (20 mM sodium phosphate pH 7.5, 25 mM NaCl, 6 mM MgCl2, 2 mM DTT, 5% (v/v) glycerol) and incubated at 37° C. Samples at varied time-points were then taken and combined in a 1:1 ratio with a 4% (w/v) SDS, 100 mM DTT solution, boiled for 5 min at 95° C., and stored at −20° C. Samples were then filtered through a 0.22 μm cellulose acetate membrane (Whatman) and washed with 0.1% (w/v) SDS. Membrane was probed using an S-tag antibody (Abcam) for mHttQ51 and PolyQ51, and with a His-tag antibody (Abcam) for AtxQ78.

[2] = tested on: yeast model systems and tissue culture cells; test: Neurotoxicity associated with Huntington's Disease in yeast model systems and tissue culture cells; type: cell-based; settings: elevated levels of the subunit

**Q.** For “C. elegans N-βNAC peptide: synthetic peptide corresponding to the N-terminal region of C. elegans βNAC (SEQ ID NO:1) (MDSKAIAERIKKLQAQQEHVRIGGKGTPRRKKKVIHKTAA)”, which mHttQ51 aggregation [1] is on record?
**A.** sufficient to suppress aggregation of mHttQ51

**Q.** With “full length CCT1 subunit: single subunit of the TRiC/CCT chaperonin complex” as the substance, how does the “neurotoxicity associated with Huntington's Disease” value [2] read?
**A.** suppress neurotoxicity
